Results taken from the RNAGym collection of RNA variant scans (doi:10.7554/elife.80360).

B1: Hairpin Ribozyme (parent)
chain: GUCCUCUUUCACGUGCGCGUGAAAGAGAGAAGUGAACCAGAGAAACACACGUUGUGGUAUAUUACCUGGUA

Variants of: B1
Experiment: self-cleavage, relative activity (ratio to wild type); higher = more cleavage; co-transcriptional
With GUCCUCUUUCACGUGCGCGUGAAAGAGAGAAGUGAACCAGAUAAUCACACGUUGUGGUAUAUUACCUGGUA the self-cleavage was 0.112.
Work on GUCCUCUUUCACGUGCGCGUGAAAGAGAGAAGUGAACCAGAUAAGCACACGUUGUGGUAUAUUACCUGGUA yielded a self-cleavage of 0.131.
GUCCUCUUUCACGUGCGCGUGAAAGAGAGAAGUGAACCAGAUAACCACACGUUGUGGUAUAUUACCUGGUA showed a self-cleavage of 0.227.
GUCCUCUUUCACGUGCGCGUGAAAGAGAGAAGUGAACCAGAGCAACACACGUUGUGGUAUAUUACCUGGUU showed a self-cleavage of 0.159.
For GUCCUCUUUCACGUGCGCGUGAAAGAGAGAAGUGAACCAGAGCAACACACGUUGUGGUAUAUUACCUGGUC, the self-cleavage was 0.26.
GUCCUCUUUCACGUGCGCGUGAAAGAGAGAAGUGAACCAGAGCAACACACGUUGUGGAAUAUUACCUGGUA gave a self-cleavage of 0.174.
In the case of GUCCUCUUUCACGUGCGCGUGAAAGAGAGAAGUGAACCAGACAAACACACGUUGUGGUAUACUACCUGGUA, the self-cleavage is reported as 0.221.
GUCCUCUUUCACGUGCGCGUGAAAGAGAGAAGUGAACCAGACAAACACACGUUGUGGUAUAGUACCUGGUA showed a self-cleavage of 0.0896.
GUCCUCUUUCACGUGCGCGUGAAAGAGAGAAGUGAACCAGAGCAACCCACGUUGUGGUAUAUUACCUGGUA gave a self-cleavage of 0.0231.
Variant GUCCUCUUUCACGUGCGCGUGAAAGAGAGAAGUGAACCAGAGCAACUCACGUUGUGGUAUAUUACCUGGUA has a self-cleavage of 0.24.
GUCCUCUUUCACGUGCGCGUGAAAGAGAGAAGUGAACCAGAUAAACACACUUUGUGGUAUAUUACCUGGUA gave a self-cleavage of 0.345.
GUCCUCUUUCACGUGCGCGUGAAAGAGAGAAGUGAACCAGAUAAACACACAUUGUGGUAUAUUACCUGGUA showed a self-cleavage of 0.191.
With GUCCUCUUUCACGUGCGCGUGAAAGAGAGAAGUGAACCAGAUAAACACACGUUGUCGUAUAUUACCUGGUA the self-cleavage was 0.147.
Variant GUCCUCUUUCACGUGCGCGUGAAAGAGAGAAGUGAACCAGAUAAACACACGUUGUUGUAUAUUACCUGGUA has a self-cleavage of 0.169.
GUCCUCUUUCACGUGCGCGUGAAAGAGAGAAGUGAACCAGAGCAACACACGUUGUGGUAUAUUACCAGGUA gave a self-cleavage of 0.0731.
GUCCUCUUUCACGUGCGCGUGAAAGAGAGAAGUGAACCAGAGCAACACACGUUGUGGUAUAUUACCCGGUA showed a self-cleavage of 0.112.
For GUCCUCUUUCACGUGCGCGUGAAAGAGAGAAGUGAACCAGAUAAAUACACGUUGUGGUAUAUUACCUGGUA, the self-cleavage was 0.205.
In the case of GUCCUCUUUCACGUGCGCGUGAAAGAGAGAAGUGAACCAGAGCAACACAGGUUGUGGUAUAUUACCUGGUA, the self-cleavage is reported as 0.143.
With GUCCUCUUUCACGUGCGCGUGAAAGAGAGAAGUGAACCAGAGCAACACAAGUUGUGGUAUAUUACCUGGUA the self-cleavage was 0.162.
GUCCUCUUUCACGUGCGCGUGAAAGAGAGAAGUGAACCAGAUAAACACACGUUGUGGUAUAUUACCUAGUA showed a self-cleavage of 0.129.
GUCCUCUUUCACGUGCGCGUGAAAGAGAGAAGUGAACCAGAUAAACACACGUUGUGGUAUAUUACCUCGUA showed a self-cleavage of 0.152.
Work on GUCCUCUUUCACGUGCGCGUGAAAGAGAGAAGUGAACCAGAUAAACACACGUUGUGGUAUAUUACCUGGCA yielded a self-cleavage of 0.162.
In the case of GUCCUCUUUCACGUGCGCGUGAAAGAGAGAAGUGAACCAGAUAAACACACGUUGUGGUAUAUUACCUGGAA, the self-cleavage is reported as 0.233.
In the case of GUCCUCUUUCACGUGCGCGUGAAAGAGAGAAGUGAACCAGAGCAACACACGUUAUGGUAUAUUACCUGGUA, the self-cleavage is reported as 0.217.
In the case of GUCCUCUUUCACGUGCGCGUGAAAGAGAGAAGUGAACCAGAGCAACACACGUUCUGGUAUAUUACCUGGUA, the self-cleavage is reported as 0.163.
In the case of GUCCUCUUUCACGUGCGCGUGAAAGAGAGAAGUGAACCAGAUAAACACACGUUGUGGUAUAUUACCAGGUA, the self-cleavage is reported as 0.151.
For GUCCUCUUUCACGUGCGCGUGAAAGAGAGAAGUGAACCAGAUAAACACACGUUGUGGUAUAUUACAUGGUA, the self-cleavage was 0.162.
GUCCUCUUUCACGUGCGCGUGAAAGAGAGAAGUGAACCAGAGCAACACACGUCGUGGUAUAUUACCUGGUA gave a self-cleavage of 0.163.
In the case of GUCCUCUUUCACGUGCGCGUGAAAGAGAGAAGUGAACCAGAGCAACACACGUAGUGGUAUAUUACCUGGUA, the self-cleavage is reported as 0.129.
In the case of GUCCUCUUUCACGUGCGCGUGAAAGAGAGAAGUGAACCAGAGCAACACACGUUGUGGUUUAUUACCUGGUA, the self-cleavage is reported as 0.101.
For GUCCUCUUUCACGUGCGCGUGAAAGAGAGAAGUGAACCAGAGCAACACACGUUGUGGUAUAUUACCUAGUA, the self-cleavage was 0.176.
GUCCUCUUUCACGUGCGCGUGAAAGAGAGAAGUGAACCAGAGCAACACACGUUGUGGUAUAUUACCUUGUA gave a self-cleavage of 0.0938.
For GUCCUCUUUCACGUGCGCGUGAAAGAGAGAAGUGAACCAGAUCAACACACGUUGUGGUAUAUUACCUGGUA, the self-cleavage was 0.179.
GUCCUCUUUCACGUGCGCGUGAAAGAGAGAAGUGAACCAGAUUAACACACGUUGUGGUAUAUUACCUGGUA showed a self-cleavage of 0.108.
Work on GUCCUCUUUCACGUGCGCGUGAAAGAGAGAAGUGAACCAGAUGAACACACGUUGUGGUAUAUUACCUGGUA yielded a self-cleavage of 0.102.
GUCCUCUUUCACGUGCGCGUGAAAGAGAGAAGUGAACCAGAGCAACACACGUUGUGGUAUACUACCUGGUA showed a self-cleavage of 0.129.
Work on GUCCUCUUUCACGUGCGCGUGAAAGAGAGAAGUGAACCAGAUAAACACACGUUGUGGUAUUUUACCUGGUA yielded a self-cleavage of 0.283.
With GUCCUCUUUCACGUGCGCGUGAAAGAGAGAAGUGAACCAGAGCAACACUCGUUGUGGUAUAUUACCUGGUA the self-cleavage was 0.142.
